Measured values as given in the RNAGym collection of RNA variant scans (doi:10.7554/elife.80360).

B1: CPEB3 Ribozyme (parent)
chain: GGGGGCCACAGCAGAAGCGUUCACGUCGCGGCCCCUGUCAGAUUCUGGUGAAUCUGCGAAUUCUGCUGU

Variants of: B1
Assay: self-cleavage, relative activity (ratio to wild type); higher = more cleavage; co-transcriptional

| Variant | self-cleavage |
| --- | --- |
| C24U C35A | 0.17 |
| C24U C35G | 0.202 |
| C24A G68C | 0.825 |
| G25A A40G | 0.172 |
| G25C U26C | 0.319 |
| G25C U26G | 0.176 |
| G25C U26A | 0.252 |
| G25U G68A | 0.204 |
| C24G G58U | 0.387 |
| G25A U26A | 0.186 |
| C24G U62C | 0.148 |
| U26A C29A | 0.46 |
| U26A C29U | 0.36 |
| C24A A40U | 0.383 |
| C24U U36A | 0.181 |
| C24U U36C | 0.37 |
| G25U U69A | 0.136 |
| G25U G58U | 0.186 |
| G25U G37U | 0.103 |
| G25U G37A | 0.156 |
| C24U G47C | 0.915 |

| Variant | self-cleavage |
| --- | --- |
| C24G A60G | 0.264 |
| G25U G41U | 0.173 |
| G25U G41C | 0.103 |
| C24G C33A | 0.206 |
| C24G C33G | 0.201 |
| C24U C32U | 0.805 |
| C24U G68A | 0.919 |
| G25A G65C | 0.178 |
| G25A G65U | 0.134 |
| G25U C35U | 0.139 |
| C24G C35A | 0.167 |
| C24U G28A | 0.174 |
| C24U G28U | 0.214 |
| C24U G28C | 0.191 |
| G25C C33G | 0.235 |
| G25U G65A | 0.184 |
| G25U G65U | 0.187 |
| G25A U62G | 0.16 |
| C24A U67C | 0.713 |
| C24G U38A | 0.177 |
| G25U G30U | 0.162 |

| Variant | self-cleavage |
| --- | --- |
| G25C A60U | 0.114 |
| G25A G30U | 0.209 |
| C24G U44G | 0.308 |
| G25A A51C | 0.209 |
| G25U U61C | 0.179 |
| G25U U61A | 0.175 |
| C24A U61G | 0.347 |
| C24A U61A | 0.452 |
| C24G U43G | 0.249 |
| U26A C35G | 0.207 |
| C24U U38G | 0.166 |
| A23U G31A | 0.977 |
| C24G U49A | 0.59 |
| C24G U49G | 0.565 |
| G25A U69G | 0.327 |
| U26A A51G | 0.889 |
| U26A A51C | 0.871 |
| C24U G41C | 0.303 |
| G25A G56C | 0.213 |
| G25A G56A | 0.154 |
| U26A A42U | 0.863 |

| Variant | self-cleavage |
| --- | --- |
| G25U U36G | 0.155 |
| C24A U62G | 0.425 |
| C24A C57A | 0.188 |
| G25U C63G | 0.175 |
| G25C G58A | 0.212 |
| G25C G58U | 0.134 |
| C24A G37U | 0.231 |
| C24U U69C | 1.02 |
| C24U A52G | 0.819 |
| C24U A52U | 0.81 |
| G25C C35G | 0.124 |
| C24G G68C | 0.578 |
| C24U U67A | 0.862 |
| C24U G37A | 0.167 |
| C24U G37C | 0.223 |
| G25C G56U | 0.256 |
| G25C G56C | 0.164 |
| C24A G65U | 0.303 |
| C24A G65A | 0.441 |
| C24A G65C | 0.245 |
